Experimental data taken from patent US20240239894A1, “THERAPEUTIC BINDING MOLECULES” (MedImmune Limited, priority 2020, published 2024).
“Also recorded” adds a separate entry of the source.

What was measured:
[1] = system: HEK 293 Jump In TREX cells stably expressing murine B7-H4; assay: Flow cytometry binding; assay type: cell-based; settings: listed as E02-INT
Excerpt: (§1) Flow cytometry was used to measure binding of antibody E02-INT to non-transduced HEK 293 Jump In TREX cells and to HEK 293 Jump In TREX cells stably expressing human, murine, or cynomolgus monkey B7-H4.

[2] = system: non-transduced HEK 293 Jump In TREX cells; assay: Flow cytometry binding; assay type: cell-based; settings: B7-H4-negative
Excerpt: as §1

[3] = system: HEK 293 Jump In TREX cells stably expressing cynomolgus monkey B7-H4; assay: Flow cytometry binding; assay type: cell-based
Excerpt: as §1

[4] = system: HEK 293 Jump In TREX cells stably expressing human B7-H4; assay: Flow cytometry binding; assay type: cell-based
Excerpt: as §1

[5] = system: B7-H4-negative non-transduced HT29; assay: Flow cytometry binding; assay type: cell-based, human
human B7-H4 = molecular target: T1, human B7-H4 (Homo sapiens, UniProt Q7Z7D3); assay: ELISA comparison with 1D11; assay type: binding; settings: E02-GL compared with 1D11
T1 construct: Human B7H4 ECD; FlagHis10 or FcHis6 (either; equivalent data); made in house
T1 sequence (Q7Z7D3 25-259 limits assumed): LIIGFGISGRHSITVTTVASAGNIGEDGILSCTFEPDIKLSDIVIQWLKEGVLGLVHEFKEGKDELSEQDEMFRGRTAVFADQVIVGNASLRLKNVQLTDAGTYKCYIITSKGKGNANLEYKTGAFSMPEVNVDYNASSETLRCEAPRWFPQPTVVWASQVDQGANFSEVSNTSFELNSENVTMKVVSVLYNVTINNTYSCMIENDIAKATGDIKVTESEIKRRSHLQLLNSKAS
Procedure: The binding of the anti-B7-H4 antibodies (e.g. intermediate ZY0EQD-E02-GL and anti-B7-H4 mAB D11) to B7-H4 (e.g. human and mouse B7-H4) was measured by ELISA. Recombinant B7-H4-Fc (e.g. Human B7-H4-Fc and mouse B7-H4-Fc) proteins were diluted into DPBS to give 5 ug/ml solution. 50 μL of the diluted stocks was then added Nunc Maxisorp 96 well plates. 50 μL/well DPBS was added to control wells. The antigens were allowed to adsorb to the plates overnight at 4° C., washed once with DPBS and incubated with blocking buffer (3% w/v Marvel in DPBS) at room temperature for 1 hour. The plates were then washed once with PBS and incubated for 1 hour with 6.4 pM-100 nM anti-B7-H4 antibody (e.g. intermediate ZY0EQD-E02-GL or anti-B7-H4 mAb D11) diluted in DPBS containing 1% BSA, 0.3% Triton X-100. The plates were then washed three times with PBS containing 0.1% Tween and incubated with peroxidase-conjugated goat anti-human light chain antibody (Sigma Aldrich, Poole, UK) for 1 hour at room temperature. The plates were then washed five times with PBS containing 0.1% Tween. Following a 5-minute incubation with TMB peroxidase substrate, the reaction was stopped by the addition of 0.5 M H2SO4. Absorbance at 450 nm (A450) was measured using an Envision multilabel plate reader (Perkin Elmer, Seer Green, UK). […]

MDA-MB-468 = assay: E02-GL MESF on cell line; assay type: cell-based, human
Procedure: A number of cancer cell lines were treated with clone E02-GL-SG3249 (e.g. conjugated to a cytotoxin), as outlined in Table 15.

[6] = system: B7-H4 expressing versus WT HT29, CT26 and 4T1 tumours; assay: In vivo imaging of 800CW labelled antibody; parameters: species or system mice; settings: 800CW label; HT29 days 3, 7, 14; CT26 days 3 and 7; 4T1 day 7
Excerpt: Antibody clones (e.g. E02_GL) were labelled with 800CW (LI-COR Biosciences). 800 CW labelled R347 was used in control experiments.
B7-H4 expressing CT26/4TI/HT29 cancer cells were grafted (e.g. inoculated subcutaneously) to the left flank […] nude mice (Charles River Laboratories, Wilmington, MA), and non-B7-H4 expressing CT26/4TI/HT29 cancer cells were grafted to the right flank to provide an internal control. Mice were kept for a week to develop tumours, 800CW-labelled E02_GL was injected. 800CW-labelled R347 was injected into control mice. […]
In vivo imaging studies were performed as outlined under Materials and Methods (above), namely with 800CW labelled antibody (E02_GL). “E02-GL” antibody has the CDR/VH sequences (e.g. corresponds to) of ZY0EQD-E02 (“GL” means the antibody has been germlined).

OVCAR4 xenograft = assay: Tumour xenograft; assay type: in vivo, mice; settings: cisplatin refractory ovarian cancer, high B7-H4
Procedure: (§2) Tumour xenografts were prepared on mice using the following cancer cell lines: • OVCAR4 (Cisplatin refractory ovarian cancer; high B7-H4 expression) • HCC1569 (HER2 positive breast cancer; heterogeneous B7-H4 expression) • MDA-MB-468 (Triple negative breast cancer; low B7-H4 expression)

HCC1569 xenograft = assay: Tumour xenograft; assay type: in vivo, mice; settings: HER2 positive breast cancer, heterogeneous B7-H4
Procedure: as §2

MDA-MB-468 xenograft = assay: Tumour xenograft; assay type: in vivo, mice; settings: triple negative breast cancer, low B7-H4
Procedure: as §2

[7] = system: B7-H4 heterogeneous HT29 tumours (1:1 expressing and non-expressing); assay: Bystander killing in vivo
Excerpt: B7-H4 heterogeneous tumours were generated by co-implantation of B7-H4 expressing HT29 cell lines with non-expressing HT29 cells (1:1 ratio). […] This is highly advantageous, as the inventors have found B7-H4 to be heterogeneously expressed within tumours.

B1: E02-GL: germlined ZY0EQD-E02, VH SEQ ID NO: 45, VL SEQ ID NO: 34; antibody intermediate of E02-GL-SG3932 (antibody, V domains shown)
VH: QVQLQQWGAGLLKPSETLSLACTVYGGSFSGYYWNWIRQPPGKGLEWIGEINHSGSTSYNPSLKSRVTISVDTSKNQFSLKLSSVTAADTAVYYCARVLYNWNVDSWGQGTLVTVSS
VL: DIQMTQSPSSLSASVGDRVTITCRASQDIRNDVGWYQQKPGKAPKRLIYAASRLQSGVPSRFSGSGSGTEFTLTISSLQPEDFATYYCLQHNSYPRTFGQGTKVEIK
cellular binding [1]: bound; also recorded: reduced compared to cells expressing human or cynomolgus monkey B7-H4
cellular binding [2]: did not bind
cellular binding [3]: bound
cellular binding [4]: bound
cellular binding [5]: did not bind
binding (affinity) to human B7-H4 by ELISA (human B7-H4): significantly better binding; also recorded: significantly stronger binding
E02-GL MESF (MDA-MB-468): 92,157 MESF
localization to the B7-H4 expressing tumour compared to the WT tumour [6]: Preferential localization

B2: E02-GL-SG3249: clone E02-GL (Maia heavy chain backbone) conjugated to the PBD cytotoxin SG3249 (conjugate)
heavy: QVQLQQWGAGLLKPSETLSLACTVYGGSFSGYYWNWIRQPPGKGLEWIGEINHSGSTSYNPSLKSRVTISVDTSKNQFSLKLSSVTAADTAVYYCARVLYNWNVDSWGQGTLVTVSSASTKGPSVFPLAPSSKSTSGGTAALGCLVKDYFPEPVTVSWNSGALTSGVHTFPAVLQSSGLYSLSSVVTVPSSSLGTQTYICNVNHKPSNTKVDKRVEPKSCDKTHTCPPCPAPELLGGPSCVFLFPPKPKDTLMISRTPEVTCVVVDVSHEDPEVKFNWYVDGVEVHNAKTKPREEQYNSTYRVVSVLTVLHQDWLNGKEYKCKVSNKALPAPIEKTISKAKGQPREPQVYTLPPSREEMTKNQVSLTCLVKGFYPSDIAVEWESNGQPENNYKTTPPVLDSDGSFFLYSKLTVDKSRWQQGNVFSCSVMHEALHNHYTQKSLSLSPGK
light: DIQMTQSPSSLSASVGDRVTITCRASQDIRNDVGWYQQKPGKAPKRLIYAASRLQSGVPSRFSGSGSGTEFTLTISSLQPEDFATYYCLQHNSYPRTFGQGTKVEIKRTVAAPSVFIFPPSDEQLKSGTASVVCLLNNFYPREAKVQWKVDNALQSGNSQESVTEQDSKDSTYSLSSTLTLSKADYEKHKVYACEVTHQGLSSPVTKSFNRGEC
tumour volume versus vehicle (OVCAR4 xenograft): significant decrease in tumour volume
tumour volume versus vehicle (HCC1569 xenograft): significant decrease in tumour volume
tumour volume versus vehicle (MDA-MB-468 xenograft): significant decrease in tumour volume
growth suppression of heterogeneous xenografts [7]: pronounced
